We go through eight molecules from publication PMC3828517 (Genes & Development, 2013).

The target in series [1] is Lrp6 β-propeller domains 1–2 (BP1–2), His8-tagged (human). Briefly: AlphaScreen or HTRF. (Alpha assays give light when donor and acceptor beads are brought close together.)
The target of series [2] is T1, MBP-Norrin (human Norrin residues 25–133 fused to the C terminus of maltose-binding protein) (human), Q00604.
T1 chain: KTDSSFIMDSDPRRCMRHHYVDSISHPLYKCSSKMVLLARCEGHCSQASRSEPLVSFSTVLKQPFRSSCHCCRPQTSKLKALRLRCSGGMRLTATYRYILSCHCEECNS
Description: SEC. The note with it: remark: other sources report otherwise.

The target in series [3] is T2, Fz4-FcH6 (Frizzled 4 cysteine-rich domain fused with an FcH6 tag) (human, UniProt Q9ULV1 40-164).
T2 sequence: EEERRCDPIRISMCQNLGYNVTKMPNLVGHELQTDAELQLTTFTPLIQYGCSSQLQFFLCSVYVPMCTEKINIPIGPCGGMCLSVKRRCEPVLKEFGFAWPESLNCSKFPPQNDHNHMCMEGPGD
Briefly: AlphaScreen or HTRF.

The target of series [4] is T3, Lrp6BP2-FcH6 (Lrp6 β-propeller 2 as an Fc fusion protein) (human, UniProt O75581 325-631).
T3 sequence: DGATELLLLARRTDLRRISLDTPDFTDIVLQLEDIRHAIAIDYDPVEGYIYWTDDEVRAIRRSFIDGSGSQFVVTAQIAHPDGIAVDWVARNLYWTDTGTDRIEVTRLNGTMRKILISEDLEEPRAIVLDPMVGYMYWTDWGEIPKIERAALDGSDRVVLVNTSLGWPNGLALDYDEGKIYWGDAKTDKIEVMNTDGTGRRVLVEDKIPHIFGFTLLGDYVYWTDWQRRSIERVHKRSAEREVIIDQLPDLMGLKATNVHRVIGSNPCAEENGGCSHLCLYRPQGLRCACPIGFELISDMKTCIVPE
Description: AlphaScreen or HTRF.

Series [5] addresses T2, Fz4-FcH6 (Frizzled 4 cysteine-rich …). Description: BLI.
Series [6] addresses T3, Lrp6BP2-FcH6 (Lrp6 β-propeller 2 as an …). Description: BLI. For orientation: BLI is a label-free optical method that tracks binding on a fibre tip over time.
Series [7] deals with the molecule itself. Briefly: crystal structure.

Regarding “MBP-Norrin R41E mutant protein (from UniProt Q00604 25-133) (ligand)”, in series [1], the IC50 turned out to be 288 nM.
In turn, “MBP-Norrin C55A/C110A mutant protein (from UniProt Q00604 25-133) (ligand)” gave an IC50 in series [1] of 207 nM. This IC50 and that of the molecule before are within 1.5-fold of each other.

B1: MBP-Norrin (human Norrin residues 25–133 fused to the C terminus of maltose-binding protein), Q00604 25-133 (ligand)
chain: KTDSSFIMDSDPRRCMRHHYVDSISHPLYKCSSKMVLLARCEGHCSQASRSEPLVSFSTVLKQPFRSSCHCCRPQTSKLKALRLRCSGGMRLTATYRYILSCHCEECNS
With B1, the stoichiometry N in series [2] was 2.

B2: biotinylated MBP-Norrin (AviTag-MBP-Norrin, biotinylated in vivo) (ligand)
chain: KTDSSFIMDSDPRRCMRHHYVDSISHPLYKCSSKMVLLARCEGHCSQASRSEPLVSFSTVLKQPFRSSCHCCRPQTSKLKALRLRCSGGMRLTATYRYILSCHCEECNS
modifications: biotin on the AviTag (in vivo biotinylation by BirA)
In turn, B2 registered a Kd in series [3] of 11 nM. Further, the binding result in series [4] was “binds”.

B3: MBP-Norrin (human Norrin residues 25–133 fused to the C terminus of maltose-binding protein) (ligand)
chain: KTDSSFIMDSDPRRCMRHHYVDSISHPLYKCSSKMVLLARCEGHCSQASRSEPLVSFSTVLKQPFRSSCHCCRPQTSKLKALRLRCSGGMRLTATYRYILSCHCEECNS
For the molecule B3, the Kd in series [5] amounted to 5 nM. Also, in series [6], the binding result is listed as “binds”. The same molecule displayed a half-inhibitory concentration (IC50) in series [3] of 34 nM.

B4: MBP-Norrin C55A/C110A mutant protein (ligand)
chain: KTDSSFIMDSDPRRCMRHHYVDSISHPLYKASSKMVLLARCEGHCSQASRSEPLVSFSTVLKQPFRSSCHCCRPQTSKLKALRLRASGGMRLTATYRYILSCHCEECNS
B4 had a half-maximal inhibitory concentration (IC50) in series [3] of 37 nM.

B5: MBP-Norrin K54E/R109E mutant protein (ligand)
chain: KTDSSFIMDSDPRRCMRHHYVDSISHPLYECSSKMVLLARCEGHCSQASRSEPLVSFSTVLKQPFRSSCHCCRPQTSKLKALRLECSGGMRLTATYRYILSCHCEECNS
Take B5: the IC50 in series [3] worked out at 18 nM.

B6: MBP-Norrin truncation construct (Norrin residues 31–133 fused with MBP at its N terminus), as crystallized (ligand)
chain: IMDSDPRRCMRHHYVDSISHPLYKCSSKMVLLARCEGHCSQASRSEPLVSFSTVLKQPFRSSCHCCRPQTSKLKALRLRCSGGMRLTATYRYILSCHCEECNS
With B6, in series [7], the binding result is given as “binds”.

One may read the IC50 as the concentration needed to halve the response being measured. The term stoichiometry N denotes a count of units in the complex or per binding partner. One may read the Kd as the equilibrium constant for the complex coming apart. A higher Kd goes with lower affinity.
